Here are results for five sequences from the supplement of paper PMC5998384.

The test system of series [1] is HeLa Kyoto. Description: melting temperature (median over replicates), in situ; higher = more thermally stable.
Series [2] deals with HeLa Kyoto. Description: solubility change mitosis vs G1/S (difference of NP-40 vs SDS log2 ratios) (log2 ratio difference); higher = more soluble in mitosis.
Series [3] has as its system HeLa Kyoto. Description: solubility in G1/S (NP-40 vs SDS abundance) (log2 ratio); higher = more soluble. Particulars: cell cycle stage: G1/S.
Series [4] relates to HeLa Kyoto. Description: thermal stability score vs G1/S (z-score of summed log2 fold changes over temperatures); higher = more thermally stable than in G1/S.
Setting [5] is: cell cycle stage: early G1 (4.5 h after nocodazole release).
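Wherever melting temperature (median over replicates), in situ is given: HeLa Kyoto cells synchronized by double thymidine or nocodazole block, proteins quantified by TMT10plex mass spectrometry, three independent biological replicates.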
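Wherever solubility change mitosis vs G1/S (difference of NP-40 vs SDS log2 ratios) is given: synchronized HeLa Kyoto cells (double thymidine block for G1/S, nocodazole release for mitosis), protein amounts in NP-40 versus SDS lysates quantified by mass spectrometry, three biological replicates.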
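Wherever solubility in G1/S (NP-40 vs SDS abundance) is given: HeLa Kyoto cells arrested at G1/S by double thymidine block, proteins quantified by TMT10plex mass spectrometry in mild NP-40 versus SDS extracts, three biological replicates.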
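Wherever thermal stability score vs G1/S (z-score of summed log2 fold changes over temperatures) is given: synchronized HeLa Kyoto cells, proteins quantified by TMT10plex mass spectrometry, three biological replicates, mitosis taken 0.5 h after nocodazole release, G1/S directly after double thymidine block.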

Consider “MANVSKKVSWSGRDRDDEEAAPLLRRTARPGGGTPLLNGAGPGAARQSPRSALFRVGHMSSVELDDELLDPDMDPPHPFPKEIPHNEKLLSLKYESLDYDNSENQLFLEEERRINHTAFRTVEIKRWVICALIGILTGLVACFIDIVVENLAGLKYRVIKGNIDKFTEKGGLSFSLLLWATLNAAFVLVGSVIVAFIEPVAAGSGIPQIKCFLNGVKIPHVVRLKTLVIKVSGVILSVVGGLAVGKEGPMIHSGSVIAAGISQGRSTSLKRDFKIFEYFRRDTEKRDFVSAGAAAGVSAAFGAPVGGVLFSLEEGASFWNQFLTWRIFFASMISTFTLNFVLSIYHGNMWDLSSPGLINFGRFDSEKMAYTIHEIPVFIAMGVVGGVLGAVFNALNYWLTMFRIRYIHRPCLQVIEAVLVAAVTATVAFVLIYSSRDCQPLQGGSMSYPLQLFCADGEYNSMAAAFFNTPEKSVVSLFHDPPGSYNPLTLGLFTLVYFFLACWTYGLTVSAGVFIPSLLIGAAWGRLFGISLSYLTGAAIWADPGKYALMGAAAQLGGIVRMTLSLTVIMMEATSNVTYGFPIMLVLMTAKIVGDVFIEGLYDMHIQLQSVPFLHWEAPVTSHSLTAREVMSTPVTCLRRREKVGVIVDVLSDTASNHNGFPVVEHADDTQPARLQGLILRSQLIVLLKHKVFVERSNLGLVQRRLRLKDFRDAYPRFPPIQSIHVSQDERECTMDLSEFMNPSPYTVPQEASLPRVFKLFRALGLRHLVVVDNRNQVVGLVTRKDLARYRLGKRGLEELSLAQT [CLCN7]”, for which the melting temperature in the series on HeLa Kyoto [1] (cell cycle stage: G1/S) was found to be 52.9 °C; with HeLa Kyoto [1] (cell cycle stage: mitosis) it was 52.6 °C. For the same sequence, in the series with HeLa Kyoto [2], the “solubility change mitosis (log2)” value was -0.116. Further, the “solubility in G1/S (log2)” value with HeLa Kyoto [3] was -0.189. For the same sequence, the thermal stability score with HeLa Kyoto [4] (setting [5]) was 0.135; in the series on HeLa Kyoto [4] (cell cycle stage: mitosis), -0.102.

On to “MAPKKRPETQKTSEIVLRPRNKRSRSPLELEPEAKKLCAKGSGPSRRCDSDCLWVGLAGPQILPPCRSIVRTLHQHKLGRASWPSVQQGLQQSFLHTLDSYRILQKAAPFDRRATSLAWHPTHPSTVAVGSKGGDIMLWNFGIKDKPTFIKGIGAGGSITGLKFNPLNTNQFYASSMEGTTRLQDFKGNILRVFASSDTINIWFCSLDVSASSRMVVTGDNVGNVILLNMDGKELWNLRMHKKKVTHVALNPCCDWFLATASVDQTVKIWDLRQVRGKASFLYSLPHRHPVNAACFSPDGARLLTTDQKSEIRVYSASQWDCPLGLIPHPHRHFQHLTPIKAAWHPRYNLIVVGRYPDPNFKSCTPYELRTIDVFDGNSGKMMCQLYDPESSGISSLNEFNPMGDTLASAMGYHILIWSQEEARTRK [DDB2]”, for which the melting temperature was 55.7 °C with HeLa Kyoto [1] (cell cycle stage: G1/S) and 56.7 °C in the series on HeLa Kyoto [1] (cell cycle stage: mitosis). Also, the “solubility change mitosis (log2)” value in the series with HeLa Kyoto [2] is -0.078. In addition, the “solubility in G1/S (log2)” value in the series with HeLa Kyoto [3] is -0.0537. The thermal stability score in the series on HeLa Kyoto [4] (setting [5]) was -1.8; in the series on HeLa Kyoto [4] (cell cycle stage: mitosis) it was -2.6.

For the sequence “MAPMGIRLSPLGVAVFCLLGLGVLYHLYSGFLAGRFSLFGLGGEPGGGAAGPAAAADGGTVDLREMLAVSVLAAVRGGDEVRRVRESNVLHEKSKGKTREGAEDKMTSGDVLSNRKMFYLLKTAFPSVQINTEEHVDAADQEVILWDHKIPEDILKEVTTPKEVPAESVTVWIDPLDATQEYTEDLRKYVTTMVCVAVNGKPMLGVIHKPFSEYTAWAMVDGGSNVKARSSYNEKTPRIVVSRSHSGMVKQVALQTFGNQTTIIPAGGAGYKVLALLDVPDKSQEKADLYIHVTYIKKWDICAGNAILKALGGHMTTLSGEEISYTGSDGIEGGLLASIRMNHQALVRKLPDLEKTGHK [IMPAD1]”, the melting temperature is 59.1 °C in the series on HeLa Kyoto [1] (cell cycle stage: G1/S) and 58.9 °C in the series with HeLa Kyoto [1] (cell cycle stage: mitosis). For the same sequence, in the series on HeLa Kyoto [2], the “solubility change mitosis (log2)” value is -0.132. Moreover, the “solubility in G1/S (log2)” value with HeLa Kyoto [3] amounted to 0.145. Further, the thermal stability score with HeLa Kyoto [4] (setting [5]) is 0.124; with HeLa Kyoto [4] (cell cycle stage: mitosis), -1.11.

In the case of “MAPPGSSTVFLLALTIIASTWALTPTHYLTKHDVERLKASLDRPFTNLESAFYSIVGLSSLGAQVPDAKKACTYIRSNLDPSNVDSLFYAAQASQALSGCEISISNETKDLLLAAVSEDSSVTQIYHAVAALSGFGLPLASQEALSALTARLSKEETVLATVQALQTASHLSQQADLRSIVEEIEDLVARLDELGGVYLQFEEGLETTALFVAATYKLMDHVGTEPSIKEDQVIQLMNAIFSKKNFESLSEAFSVASAAAVLSHNRYHVPVVVVPEGSASDTHEQAILRLQVTNVLSQPLTQATVKLEHAKSVASRATVLQKTSFTPVGDVFELNFMNVKFSSGYYDFLVEVEGDNRYIANTVELRVKISTEVGITNVDLSTVDKDQSIAPKTTRVTYPAKAKGTFIADSHQNFALFFQLVDVNTGAELTPHQTFVRLHNQKTGQEVVFVAEPDNKNVYKFELDTSERKIEFDSASGTYTLYLIIGDATLKNPILWNVADVVIKFPEEEAPSTVLSQNLFTPKQEIQHLFREPEKRPPTVVSNTFTALILSPLLLLFALWIRIGANVSNFTFAPSTIIFHLGHAAMLGLMYVYWTQLNMFQTLKYLAILGSVTFLAGNRMLAQQAVKRTAH [RPN2]”, the melting temperature was found to be 54 °C in the series on HeLa Kyoto [1] (cell cycle stage: G1/S) and 53.7 °C in the series with HeLa Kyoto [1] (cell cycle stage: mitosis). In addition, in the series with HeLa Kyoto [2], the “solubility change mitosis (log2)” value was -0.162. Further, the “solubility in G1/S (log2)” value with HeLa Kyoto [3] was 0.0246. In addition, the thermal stability score in the series with HeLa Kyoto [4] (setting [5]) amounted to 1.07; in the series with HeLa Kyoto [4] (cell cycle stage: mitosis) it was 2.44.

In the case of “MAPQSLPSSRMAPLGMLLGLLMAACFTFCLSHQNLKEFALTNPEKSSTKETERKETKAEEELDAEVLEVFHPTHEWQALQPGQAVPAGSHVRLNLQTGEREAKLQYEDKFRNNLKGKRLDINTNTYTSQDLKSALAKFKEGAEMESSKEDKARQAEVKRLFRPIEELKKDFDELNVVIETDMQIMVRLINKFNSSSSSLEEKIAALFDLEYYVHQMDNAQDLLSFGGLQVVINGLNSTEPLVKEYAAFVLGAAFSSNPKVQVEAIEGGALQKLLVILATEQPLTAKKKVLFALCSLLRHFPYAQRQFLKLGGLQVLRTLVQEKGTEVLAVRVVTLLYDLVTEKMFAEEEAELTQEMSPEKLQQYRQVHLLPGLWEQGWCEITAHLLALPEHDAREKVLQTLGVLLTTCRDRYRQDPQLGRTLASLQAEYQVLASLELQDGEDEGYFQELLGSVNSLLKELR [SIL1]”, the values for the melting temperature with HeLa Kyoto [1] (cell cycle stage: G1/S) and in the series on HeLa Kyoto [1] (cell cycle stage: mitosis) were 53.5 °C and 53.4 °C, respectively. Besides, the “solubility change mitosis (log2)” value in the series on HeLa Kyoto [2] is -0.0794. For the same sequence, the “solubility in G1/S (log2)” value with HeLa Kyoto [3] came out at 0.7. Moreover, the thermal stability score in the series on HeLa Kyoto [4] (setting [5]) was -0.386; in the series with HeLa Kyoto [4] (cell cycle stage: mitosis) it was 0.264.
